Km data for two proteins are collected here from ChEMBL document CHEMBL1130474, “Conformationally restricted arginine analogues as inhibitors of human nitric oxide synthase” (Bioorg Med Chem Lett, 1997).

Substrate in data set [1]: N=C(N)NCCC[C@H](N)C(=O)O
Substrate in data set [2]: N=C(N)NCCC[C@H](N)C(=O)O
The source holds these as a separate data set.

B1: Nitric oxide synthase 3 (Homo sapiens), P29474 (protein)
chain: MGNLKSVAQEPGPPCGLGLGLGLGLCGKQGPATPAPEPSRAPASLLPPAPEHSPPSSPLTQPPEGPKFPRVKNWEVGSITYDTLSAQAQQDGPCTPRRCLGSLVFPRKLQGRPSPGPPAPEQLLSQARDFINQYYSSIKRSGSQAHEQRLQEVEAEVAATGTYQLRESELVFGAKQAWRNAPRCVGRIQWGKLQVFDARDCRSAQEMFTYICNHIKYATNRGNLRSAITVFPQRCPGRGDFRIWNSQLVRYAGYRQQDGSVRGDPANVEITELCIQHGWTPGNGRFDVLPLLLQAPDDPPELFLLPPELVLEVPLEHPTLEWFAALGLRWYALPAVSNMLLEIGGLEFPAAPFSGWYMSTEIGTRNLCDPHRYNILEDVAVCMDLDTRTTSSLWKDKAAVEINVAVLHSYQLAKVTIVDHHAATASFMKHLENEQKARGGCPADWAWIVPPISGSLTPVFHQEMVNYFLSPAFRYQPDPWKGSAAKGTGITRKKTFKEVANAVKISASLMGTVMAKRVKATILYGSETGRAQSYAQQLGRLFRKAFDPRVLCMDEYDVVSLEHETLVLVVTSTFGNGDPPENGESFAAALMEMSGPYNSSPRPEQHKSYKIRFNSISCSDPLVSSWRRKRKESSNTDSAGALGTLRFCVFGLGSRAYPHFCAFARAVDTRLEELGGERLLQLGQGDELCGQEEAFRGWAQAAFQAACETFCVGEDAKAAARDIFSPKRSWKRQRYRLSAQAEGLQLLPGLIHVHRRKMFQATIRSVENLQSSKSTRATILVRLDTGGQEGLQYQPGDHIGVCPPNRPGLVEALLSRVEDPPAPTEPVAVEQLEKGSPGGPPPGWVRDPRLPPCTLRQALTFFLDITSPPSPQLLRLLSTLAEEPREQQELEALSQDPRRYEEWKWFRCPTLLEVLEQFPSVALPAPLLLTQLPLLQPRYYSVSSAPSTHPGEIHLTVAVLAYRTQDGLGPLHYGVCSTWLSQLKPGDPVPCFIRGAPSFRLPPDPSLPCILVGPGTGIAPFRGFWQERLHDIESKGLQPTPMTLVFGCRCSQLDHLYRDEVQNAQQRGVFGRVLTAFSREPDNPKTYVQDILRTELAAEVHRVLCLERGHMFVCGDVTMATNVLQTVQRILATEGDMELDEAGDVIGVLRDQQRYHEDIFGLTLRTQEVTSRIRTQSFSLQERQLRGAVPWAFDPPGSDTNSP
As usually defined, the Km is the substrate concentration at which the rate is half of its maximum. In the case of B1, the Km in data set [1] worked out at 0.9 µM.

B2: Nitric oxide synthase 1 (Homo sapiens), P29475 (protein)
chain: MEDHMFGVQQIQPNVISVRLFKRKVGGLGFLVKERVSKPPVIISDLIRGGAAEQSGLIQAGDIILAVNGRPLVDLSYDSALEVLRGIASETHVVLILRGPEGFTTHLETTFTGDGTPKTIRVTQPLGPPTKAVDLSHQPPAGKEQPLAVDGASGPGNGPQHAYDDGQEAGSLPHANGLAPRPPGQDPAKKATRVSLQGRGENNELLKEIEPVLSLLTSGSRGVKGGAPAKAEMKDMGIQVDRDLDGKSHKPLPLGVENDRVFNDLWGKGNVPVVLNNPYSEKEQPPTSGKQSPTKNGSPSKCPRFLKVKNWETEVVLTDTLHLKSTLETGCTEYICMGSIMHPSQHARRPEDVRTKGQLFPLAKEFIDQYYSSIKRFGSKAHMERLEEVNKEIDTTSTYQLKDTELIYGAKHAWRNASRCVGRIQWSKLQVFDARDCTTAHGMFNYICNHVKYATNKGNLRSAITIFPQRTDGKHDFRVWNSQLIRYAGYKQPDGSTLGDPANVQFTEICIQQGWKPPRGRFDVLPLLLQANGNDPELFQIPPELVLEVPIRHPKFEWFKDLGLKWYGLPAVSNMLLEIGGLEFSACPFSGWYMGTEIGVRDYCDNSRYNILEEVAKKMNLDMRKTSSLWKDQALVEINIAVLYSFQSDKVTIVDHHSATESFIKHMENEYRCRGGCPADWVWIVPPMSGSITPVFHQEMLNYRLTPSFEYQPDPWNTHVWKGTNGTPTKRRAIGFKKLAEAVKFSAKLMGQAMAKRVKATILYATETGKSQAYAKTLCEIFKHAFDAKVMSMEEYDIVHLEHETLVLVVTSTFGNGDPPENGEKFGCALMEMRHPNSVQEERKSYKVRFNSVSSYSDSQKSSGDGPDLRDNFESAGPLANVRFSVFGLGSRAYPHFCAFGHAVDTLLEELGGERILKMREGDELCGQEEAFRTWAKKVFKAACDVFCVGDDVNIEKANNSLISNDRSWKRNKFRLTFVAEAPELTQGLSNVHKKRVSAARLLSRQNLQSPKSSRSTIFVRLHTNGSQELQYQPGDHLGVFPGNHEDLVNALIERLEDAPPVNQMVKVELLEERNTALGVISNWTDELRLPPCTIFQAFKYYLDITTPPTPLQLQQFASLATSEKEKQRLLVLSKGLQEYEEWKWGKNPTIVEVLEEFPSIQMPATLLLTQLSLLQPRYYSISSSPDMYPDEVHLTVAIVSYRTRDGEGPIHHGVCSSWLNRIQADELVPCFVRGAPSFHLPRNPQVPCILVGPGTGIAPFRSFWQQRQFDIQHKGMNPCPMVLVFGCRQSKIDHIYREETLQAKNKGVFRELYTAYSREPDKPKKYVQDILQEQLAESVYRALKEQGGHIYVCGDVTMAADVLKAIQRIMTQQGKLSAEDAGVFISRMRDDNRYHEDIFGVTLRTYEVTNRLRSESIAFIEESKKDTDEVFSS
B2: the Km in data set [2] stood at 1.6 µM.
